Data reported in paper PMC2923636 (Structure (London, England : 1993), 2009).

Target: T1, AIRE-PHD1 P326L mutant (human, UniProt O43918 293-346, P326L)
T1 sequence (looked up): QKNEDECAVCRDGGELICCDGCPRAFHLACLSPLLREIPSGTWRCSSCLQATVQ
Assay: NMR titration

- binding result: binds
Binder: ARTKQTARKST (peptide, UniProt P68431 2-12, looked up) [unmodified histone H3 peptide (residues 1-11)]
